Legend:
[1] = biological target: T1, anti-IGF-1R antibody (IgG1 subclass with mutations I253A/H310A/H435A); assay: ELISA assay C, tracer FcγRI-Dig, target 100 ng/mL
T1 construct: Positions are EU numbers; also called sample 3; antibody 3

[2] = biological target: T2, anti-P-Selectin antibody (IgG4 subclass with mutations S228P/L235E); assay: ELISA assay C, tracer FcγRI-Dig, target 3 ng/mL
T2 construct: Positions are EU numbers; also called sample 4; antibody 4

[3] = biological target: T3, anti-VEGF/ANG2 antibody (IgG1 subclass with mutations P329G/L234A/L235A); assay: ELISA assay C, tracer FcγRI-Dig, target 3 ng/mL
T3 construct: Positions are EU numbers; also called sample 2; antibody 2

[4] = biological target: T4, anti-VEGF/ANG2 antibody (wild-type IgG1 subclass) (UniProt P01857-1 1-330 = IgG part); assay: ELISA assay C, tracer FcγRI-Dig, target 3 ng/mL
T4 construct: also called sample 5; antibody 5

[5] = biological target: T1, anti-IGF-1R antibody (IgG1 subclass …); assay: ELISA assay C, tracer FcγRI-Dig, target 3 ng/mL
[6] = biological target: T5, anti-VEGF/ANG2 antibody (IgG1 subclass with mutations P329G/L234A/L235A/I253A/H310A/H435A); assay: ELISA assay C, tracer FcγRI-Dig, target 3 ng/mL
T5 construct: Format of the bispecific antibody not described; Positions are EU numbers, not positions on the UniProt entry; also called sample 1; antibody 1

[7] = biological target: T2, anti-P-Selectin antibody (IgG4 subclass …); assay: ELISA assay B, tracer M1.7.10-Dig, target 2 ng/mL
Protocol: (§1) Biotinylated anti-PG Fc-region antibody or biotinylated anti-AAA Fc-region antibody, respectively, was bound to the wells of a streptavidin-coated multi-well plate (SA-MTP) to produce a capture plate. Excess of unbound antibody was removed by washing. Sample/standard antibodies spiked in human and cynomolgus monkey serum (10% final concentration) was added to wells of the SA-MTP multi-well plate coated with the capture plate and incubated for 1 hour at room temperature. After washing, the wells were incubated with digoxygenylated anti-human kappa antibody M1.7.10 (see e.g. WO 2011/048043, incorporated herein by reference). After washing the bound digoxygenylated anti-human kappa antibody complex was incubated with a horseradish peroxidase (HRP) labelled anti-digoxygenin antibody. After another washing step, an ABTS solution was added to the wells and incubated. The product of the color reaction was measured by Elisa reader at 405 nm wavelength (reference wavelength: 490 nm). Absorbance values of each sample or standard were determined in triplicates.

[8] = biological target: T3, anti-VEGF/ANG2 antibody (IgG1 subclass …); assay: ELISA assay B, tracer M1.7.10-Dig, target 2 ng/mL
Protocol: as §1

[9] = biological target: T4, anti-VEGF/ANG2 antibody (wild-type IgG1 …); assay: ELISA assay B, tracer M1.7.10-Dig, target 2 ng/mL
Protocol: as §1

[10] = biological target: T1, anti-IGF-1R antibody (IgG1 subclass …); assay: ELISA assay B, tracer M1.7.10-Dig, target 2 ng/mL
Protocol: as §1

[11] = biological target: T5, anti-VEGF/ANG2 antibody (IgG1 subclass …); assay: ELISA assay B, tracer M1.7.10-Dig, target 2 ng/mL
Protocol: as §1

[12] = biological target: T2, anti-P-Selectin antibody (IgG4 subclass …); assay: ELISA assay B, tracer M1.7.10-Dig, target 25 ng/mL
Protocol: as §1

[13] = biological target: T3, anti-VEGF/ANG2 antibody (IgG1 subclass …); assay: ELISA assay B, tracer M1.7.10-Dig, target 25 ng/mL
Protocol: as §1

[14] = biological target: T4, anti-VEGF/ANG2 antibody (wild-type IgG1 …); assay: ELISA assay B, tracer M1.7.10-Dig, target 25 ng/mL
Protocol: as §1

[15] = biological target: T1, anti-IGF-1R antibody (IgG1 subclass …); assay: ELISA assay B, tracer M1.7.10-Dig, target 25 ng/mL
Protocol: as §1

[16] = biological target: T5, anti-VEGF/ANG2 antibody (IgG1 subclass …); assay: ELISA assay B, tracer M1.7.10-Dig, target 25 ng/mL
Protocol: as §1

[17] = biological target: T2, anti-P-Selectin antibody (IgG4 subclass …); assay: ELISA assay B, tracer M1.7.10-Dig, target 50 ng/mL
Protocol: as §1

[18] = biological target: T3, anti-VEGF/ANG2 antibody (IgG1 subclass …); assay: ELISA assay B, tracer M1.7.10-Dig, target 50 ng/mL
Protocol: as §1

[19] = biological target: T4, anti-VEGF/ANG2 antibody (wild-type IgG1 …); assay: ELISA assay B, tracer M1.7.10-Dig, target 50 ng/mL
Protocol: as §1

[20] = biological target: T1, anti-IGF-1R antibody (IgG1 subclass …); assay: ELISA assay B, tracer M1.7.10-Dig, target 50 ng/mL
Protocol: as §1

[21] = biological target: T5, anti-VEGF/ANG2 antibody (IgG1 subclass …); assay: ELISA assay B, tracer M1.7.10-Dig, target 50 ng/mL
Protocol: as §1

[22] = biological target: T2, anti-P-Selectin antibody (IgG4 subclass …); assay: ELISA assay B, tracer M1.7.10-Dig, target 0 ng/mL (blank)
Protocol: as §1

[23] = biological target: T5, anti-VEGF/ANG2 antibody (IgG1 subclass …); assay: as above
Protocol: as §1

| Binder | signal [OD405 nm] [1] | signal [OD405 nm] [2] | signal [OD405 nm] [3] | signal [OD405 nm] [4] | signal [OD405 nm] [5] | signal [OD405 nm] [6] | signal [OD405 nm] [7] | signal [OD405 nm] [8] | signal [OD405 nm] [9] | signal [OD405 nm] [10] | signal [OD405 nm] [11] | signal [OD405 nm] [12] | signal [OD405 nm] [13] | signal [OD405 nm] [14] | signal [OD405 nm] [15] | signal [OD405 nm] [16] | signal [OD405 nm] [17] | signal [OD405 nm] [18] | signal [OD405 nm] [19] | signal [OD405 nm] [20] | further results |
| --- | --- | --- | --- | --- | --- | --- | --- | --- | --- | --- | --- | --- | --- | --- | --- | --- | --- | --- | --- | --- | --- |
| anti-PG variant Fc-region antibody M1.3.17 (antibody, V domains shown, Monomeric, bivalent full-length antibody with murine variable domains; Biotinylated when used as capture antibody; also called anti-PG antibody clone 1.3.17; M1.3.17-Bi) VH: EVKLLESGGGLVQPGGSLKLSCAASGIDFRRYWMNWVRQAPGKGLEWIGEIDPDSSTINYTPSLKDKFIISRDNAKNTMYLQMRKVRSEDTALYYCARPYDYGAWFAYWGQGTLVTVSA VL: QAVVTQESALTTSPGETVTLTCRSTTGAVTTSNYANWVQEKPDHLFTGLIGGTNKRAPGVPARFSGSLIGDKAALTITGAQTEDEAIYFCALWYSDHWVFGGGTKLTVL | 1.2 OD405 nm | 1.19 OD405 nm | 1.22 OD405 nm | 1.19 OD405 nm | 1.21 OD405 nm | 1.16 OD405 nm | 0.049 OD405 nm | 0.125 OD405 nm | 0.043 OD405 nm | 0.047 OD405 nm | 0.036 OD405 nm | 0.047 OD405 nm | 0.213 OD405 nm | 0.043 OD405 nm | 0.046 OD405 nm | 0.035 OD405 nm | 0.049 OD405 nm | 0.215 OD405 nm | 0.042 OD405 nm | 0.048 OD405 nm | signal [OD405 nm] [21]: 0.035 OD405 nm; signal [OD405 nm] [22]: 0.049 OD405 nm; signal [OD405 nm] [23]: 0.035 OD405 nm |
| anti-PG variant Fc-region antibody M1.7.24 (monomeric, bivalent) (antibody, V domains shown, Full-length Y-shaped antibody with murine variable domains; Biotinylated when used as capture antibody; also called anti-PG antibody clone 1.7.24; M1.7.24-Bi) VH: EVKLLESGGGLVQPGGSLKLSCAASGFDFSRYWMNWVRQAPGKGLEWIGEITPDSSTINYTPSLKDKFIISRDNAKNTLYLQMIKVRSEDTALYYCVRPYDYGAWFASWGQGTLVTVSA VL: QAVVTQESALTTSPGETVTLTCRSSTGAVTTSNYANWVQEKPDHLFTGLIGGTNKRAPGVPARFSGSLIGDKAALTITGAQTEDEAIYFCALWYSNHWVFGGGTKLTVL | 0.11 OD405 nm | 0.053 OD405 nm | 0.057 OD405 nm | 0.053 OD405 nm | 0.077 OD405 nm | 0.094 OD405 nm | 0.033 OD405 nm | 1.73 OD405 nm | 0.034 OD405 nm | 0.047 OD405 nm | 0.049 OD405 nm | 0.04 OD405 nm | 3.16 OD405 nm | 0.041 OD405 nm | 0.048 OD405 nm | 0.047 OD405 nm | 0.043 OD405 nm | 3.17 OD405 nm | 0.04 OD405 nm | 0.064 OD405 nm | signal [OD405 nm] [21]: 0.06 OD405 nm; signal [OD405 nm] [22]: 0.035 OD405 nm; signal [OD405 nm] [23]: 0.049 OD405 nm |
| anti-AAA variant Fc-region antibody M1.6.22 (antibody, V domains shown, Murine variable domains; also called M1.6.22-Bi) VH: EVQLVESGGDLVKPGGSLKLSCAASGFTFSSYGMSWVRQTPDKRLEWVATISSGGSYIYYPDSVKGRFTISRDNAKNTLYLQMSSLKSEDTAMYYCARLGMITTGYAMDYWGQGTSVTVSS VL: DVLMTQTPLSLPVSLGDQASISCRSSQTIVHSTGHTYLEWFLQKPGQSPKLLIYKVSNRFSGVPDRFSGSGSGTDFTLKISRVEAEDLGVYYCFQGSHVPYTFGGGTKLEIK | 2.1 OD405 nm | 0.05 OD405 nm | 0.068 OD405 nm | 0.069 OD405 nm | 0.083 OD405 nm | 0.066 OD405 nm | 0.032 OD405 nm | 0.041 OD405 nm | 0.036 OD405 nm | 1.48 OD405 nm | 0.041 OD405 nm | 0.048 OD405 nm | 0.092 OD405 nm | 0.047 OD405 nm | 2.89 OD405 nm | 0.044 OD405 nm | 0.047 OD405 nm | 0.127 OD405 nm | 0.049 OD405 nm | 2.9 OD405 nm | signal [OD405 nm] [21]: 0.05 OD405 nm; signal [OD405 nm] [22]: 0.038 OD405 nm; signal [OD405 nm] [23]: 0.047 OD405 nm |
